In PMC5906591:

Molecular target: HigA2Ab-His antitoxin (C-terminal His-tag fusion, from pET-HigBA-His) (Acinetobacter baumannii)
Assay: SEC

Question: For “HigB2Ab toxin, untagged (co-expressed from pET-HigBA-His or pET-HigB-His6-TEV-HigA)”, which stoichiometry N (toxin:antitoxin) is on record?
Answer: 1
